Publication PMC6915727

Biological target: human Toll-like receptor 5 (TLR5) in stably transfected HEK293 cells (TLR5+) (human) (UniProt O60602)
Chain of UniProt O60602 (O60602 21-858): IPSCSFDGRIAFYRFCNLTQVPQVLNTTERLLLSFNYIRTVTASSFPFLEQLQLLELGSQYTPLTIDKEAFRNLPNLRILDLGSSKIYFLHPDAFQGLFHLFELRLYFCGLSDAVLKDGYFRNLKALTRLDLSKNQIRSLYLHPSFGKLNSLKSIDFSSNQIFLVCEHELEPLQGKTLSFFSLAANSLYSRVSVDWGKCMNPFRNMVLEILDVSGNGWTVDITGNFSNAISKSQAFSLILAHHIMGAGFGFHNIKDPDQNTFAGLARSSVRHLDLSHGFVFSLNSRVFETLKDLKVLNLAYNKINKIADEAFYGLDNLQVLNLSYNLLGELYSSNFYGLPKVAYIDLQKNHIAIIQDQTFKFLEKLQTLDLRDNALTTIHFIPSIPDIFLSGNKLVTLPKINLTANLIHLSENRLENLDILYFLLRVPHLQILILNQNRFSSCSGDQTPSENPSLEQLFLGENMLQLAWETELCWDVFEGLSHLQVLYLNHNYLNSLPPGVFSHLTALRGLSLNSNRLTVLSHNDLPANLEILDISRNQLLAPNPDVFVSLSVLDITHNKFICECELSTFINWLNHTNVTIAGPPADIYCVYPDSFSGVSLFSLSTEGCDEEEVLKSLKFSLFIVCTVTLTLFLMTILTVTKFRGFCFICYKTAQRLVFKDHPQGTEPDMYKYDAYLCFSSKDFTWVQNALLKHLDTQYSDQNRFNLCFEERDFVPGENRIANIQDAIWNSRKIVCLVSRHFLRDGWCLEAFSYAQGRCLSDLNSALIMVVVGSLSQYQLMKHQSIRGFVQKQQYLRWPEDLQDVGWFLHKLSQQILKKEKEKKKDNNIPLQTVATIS

Question: How did the NF-κB luciferase activity in TLR5+ HEK293 cells, dose-response of recombinant CagL WT (EC50) turn out when “recombinant CagL wild type (CagL^WT), C-terminal His-tag fusion (natural protein)” was run?
Answer: 173 nM
